Results from the supplement of paper PMC10065799, “High-throughput profiling of sequence recognition by tyrosine kinases and SH2 domains using bacterial peptide display” (eLife, 2023).

Assays:
Jak2 = Jak2 (UniProt O60674); experiment: phosphorylation enrichment, bacterial display (enrichment ratio); higher = better substrate or ligand; peptides without Tyr show the background
Fer (mouse) = experiment: as above
AncSZ = experiment: as above
Fes = Fes (UniProt P07332); experiment: as above
c-Abl (mouse) = experiment: as above
FGFR1 = FGFR1 (UniProt P11362); experiment: as above
c-Src = experiment: as above
EPHB2 = EPHB2 (UniProt P29323); experiment: as above
Hck = Hck (UniProt P08631); experiment: as above
FGFR3 = FGFR3 (UniProt P22607); experiment: as above
EPHB1 = EPHB1 (UniProt P54762); experiment: as above
MERTK = MERTK (UniProt Q12866); experiment: as above
Fyn = Fyn (UniProt P06241); experiment: as above
c-Src SH2 = experiment: SH2 binding enrichment of the phosphorylated peptide, bacterial display (enrichment ratio); higher = better substrate or ligand; peptides without Tyr show the background
SHP2-C SH2 = experiment: as above
Grb2 SH2 = Grb2 SH2 (UniProt P62993); experiment: as above
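For SH2 binding enrichment of the phosphorylated peptide, bacterial display in this document: peptide library displayed on the E. coli surface as eCPX fusions, selected cells deep-sequenced, score is each peptide's frequency after selection divided by its frequency in the input.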
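For phosphorylation enrichment, bacterial display in this document: 11-residue human phosphosite peptides and single-mutation variants displayed on the E. coli surface, counted by deep sequencing, each peptide's frequency after selection divided by its frequency in the unselected input library; frequency after pTyr selection over input frequency; kinase dosed for 20-30% of maximal phosphorylation in three min.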

Fes, sequence (P07332 whole entry, looked up): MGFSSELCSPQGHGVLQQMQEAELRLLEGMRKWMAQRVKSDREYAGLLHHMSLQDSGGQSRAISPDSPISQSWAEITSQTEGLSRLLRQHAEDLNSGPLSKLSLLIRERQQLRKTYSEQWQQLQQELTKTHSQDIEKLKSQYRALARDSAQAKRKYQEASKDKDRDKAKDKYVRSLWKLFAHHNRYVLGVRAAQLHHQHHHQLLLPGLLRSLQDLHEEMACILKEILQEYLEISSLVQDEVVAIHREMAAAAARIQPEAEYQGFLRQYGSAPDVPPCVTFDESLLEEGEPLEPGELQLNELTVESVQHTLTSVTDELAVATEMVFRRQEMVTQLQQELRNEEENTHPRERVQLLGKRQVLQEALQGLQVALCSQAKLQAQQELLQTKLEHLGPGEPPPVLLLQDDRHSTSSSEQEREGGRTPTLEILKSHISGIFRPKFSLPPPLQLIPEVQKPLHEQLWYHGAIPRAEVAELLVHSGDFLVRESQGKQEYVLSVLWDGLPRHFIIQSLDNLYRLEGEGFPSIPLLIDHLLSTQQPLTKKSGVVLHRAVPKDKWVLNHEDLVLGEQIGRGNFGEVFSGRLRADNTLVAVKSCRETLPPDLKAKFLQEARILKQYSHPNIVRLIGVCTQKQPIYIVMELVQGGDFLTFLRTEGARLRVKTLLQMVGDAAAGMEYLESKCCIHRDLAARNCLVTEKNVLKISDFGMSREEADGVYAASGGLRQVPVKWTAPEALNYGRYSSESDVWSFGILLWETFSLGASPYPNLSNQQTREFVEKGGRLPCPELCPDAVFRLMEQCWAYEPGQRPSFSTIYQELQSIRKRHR
EPHB2, sequence (P29323 whole entry, looked up): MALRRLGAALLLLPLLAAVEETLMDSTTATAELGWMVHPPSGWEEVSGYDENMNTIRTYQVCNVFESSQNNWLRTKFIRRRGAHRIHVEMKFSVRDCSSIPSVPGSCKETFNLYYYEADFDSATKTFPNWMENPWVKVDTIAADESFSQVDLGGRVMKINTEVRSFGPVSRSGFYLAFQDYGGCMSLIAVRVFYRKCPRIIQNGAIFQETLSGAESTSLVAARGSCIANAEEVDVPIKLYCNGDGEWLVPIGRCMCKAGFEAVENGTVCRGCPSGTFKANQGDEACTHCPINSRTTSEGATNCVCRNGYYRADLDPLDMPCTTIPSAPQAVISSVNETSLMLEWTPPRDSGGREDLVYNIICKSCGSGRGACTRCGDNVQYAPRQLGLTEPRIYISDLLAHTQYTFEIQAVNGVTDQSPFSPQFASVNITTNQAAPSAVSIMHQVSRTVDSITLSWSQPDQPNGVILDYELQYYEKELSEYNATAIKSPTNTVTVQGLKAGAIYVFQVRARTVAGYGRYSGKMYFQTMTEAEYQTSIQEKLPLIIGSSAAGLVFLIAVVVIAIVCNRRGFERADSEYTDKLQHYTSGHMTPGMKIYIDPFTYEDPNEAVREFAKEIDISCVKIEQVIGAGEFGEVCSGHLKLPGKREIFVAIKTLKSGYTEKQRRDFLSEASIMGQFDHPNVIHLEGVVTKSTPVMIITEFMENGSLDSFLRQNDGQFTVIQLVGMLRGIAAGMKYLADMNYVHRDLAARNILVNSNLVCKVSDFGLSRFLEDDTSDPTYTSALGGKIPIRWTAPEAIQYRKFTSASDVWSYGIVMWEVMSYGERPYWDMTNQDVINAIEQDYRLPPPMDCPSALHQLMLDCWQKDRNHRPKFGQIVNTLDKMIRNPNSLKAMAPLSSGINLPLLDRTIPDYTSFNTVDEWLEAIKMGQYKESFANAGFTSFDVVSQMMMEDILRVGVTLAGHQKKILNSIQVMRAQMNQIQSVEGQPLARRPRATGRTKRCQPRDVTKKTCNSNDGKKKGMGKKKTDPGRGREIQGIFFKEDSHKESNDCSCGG
FGFR3, sequence (P22607 whole entry, looked up): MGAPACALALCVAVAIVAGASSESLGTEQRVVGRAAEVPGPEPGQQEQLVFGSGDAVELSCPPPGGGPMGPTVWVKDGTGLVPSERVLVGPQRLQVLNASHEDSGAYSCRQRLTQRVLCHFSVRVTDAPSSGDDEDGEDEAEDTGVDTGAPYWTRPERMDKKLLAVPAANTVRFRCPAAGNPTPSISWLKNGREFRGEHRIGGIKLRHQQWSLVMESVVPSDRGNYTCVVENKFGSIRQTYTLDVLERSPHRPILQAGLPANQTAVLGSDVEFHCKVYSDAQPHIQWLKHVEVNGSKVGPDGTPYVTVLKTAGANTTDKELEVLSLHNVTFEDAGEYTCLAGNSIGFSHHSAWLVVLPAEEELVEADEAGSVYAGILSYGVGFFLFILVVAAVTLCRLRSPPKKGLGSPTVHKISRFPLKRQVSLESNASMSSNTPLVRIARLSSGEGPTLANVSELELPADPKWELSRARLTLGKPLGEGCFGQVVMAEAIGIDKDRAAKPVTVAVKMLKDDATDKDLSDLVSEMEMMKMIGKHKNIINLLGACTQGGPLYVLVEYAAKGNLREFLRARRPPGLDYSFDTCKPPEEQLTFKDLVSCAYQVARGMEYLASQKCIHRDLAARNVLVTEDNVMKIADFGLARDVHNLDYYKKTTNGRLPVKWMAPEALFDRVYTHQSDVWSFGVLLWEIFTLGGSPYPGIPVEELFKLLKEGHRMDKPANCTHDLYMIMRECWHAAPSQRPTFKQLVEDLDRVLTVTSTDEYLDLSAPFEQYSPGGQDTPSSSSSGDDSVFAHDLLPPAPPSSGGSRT
Hck, sequence (P08631 whole entry, looked up): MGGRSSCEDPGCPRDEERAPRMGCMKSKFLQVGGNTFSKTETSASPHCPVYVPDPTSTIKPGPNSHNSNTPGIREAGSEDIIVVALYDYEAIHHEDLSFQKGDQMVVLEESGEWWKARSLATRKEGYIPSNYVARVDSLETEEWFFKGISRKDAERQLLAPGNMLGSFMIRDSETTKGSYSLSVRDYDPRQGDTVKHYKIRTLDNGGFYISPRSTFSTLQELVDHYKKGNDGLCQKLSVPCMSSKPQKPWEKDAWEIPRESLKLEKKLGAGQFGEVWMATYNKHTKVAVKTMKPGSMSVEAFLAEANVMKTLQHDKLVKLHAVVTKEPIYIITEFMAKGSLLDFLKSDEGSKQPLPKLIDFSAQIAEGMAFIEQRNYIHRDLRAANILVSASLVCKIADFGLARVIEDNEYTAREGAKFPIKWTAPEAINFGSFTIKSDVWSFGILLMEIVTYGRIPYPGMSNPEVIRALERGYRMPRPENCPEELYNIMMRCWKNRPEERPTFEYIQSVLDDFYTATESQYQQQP
Fyn, sequence (P06241 whole entry, looked up): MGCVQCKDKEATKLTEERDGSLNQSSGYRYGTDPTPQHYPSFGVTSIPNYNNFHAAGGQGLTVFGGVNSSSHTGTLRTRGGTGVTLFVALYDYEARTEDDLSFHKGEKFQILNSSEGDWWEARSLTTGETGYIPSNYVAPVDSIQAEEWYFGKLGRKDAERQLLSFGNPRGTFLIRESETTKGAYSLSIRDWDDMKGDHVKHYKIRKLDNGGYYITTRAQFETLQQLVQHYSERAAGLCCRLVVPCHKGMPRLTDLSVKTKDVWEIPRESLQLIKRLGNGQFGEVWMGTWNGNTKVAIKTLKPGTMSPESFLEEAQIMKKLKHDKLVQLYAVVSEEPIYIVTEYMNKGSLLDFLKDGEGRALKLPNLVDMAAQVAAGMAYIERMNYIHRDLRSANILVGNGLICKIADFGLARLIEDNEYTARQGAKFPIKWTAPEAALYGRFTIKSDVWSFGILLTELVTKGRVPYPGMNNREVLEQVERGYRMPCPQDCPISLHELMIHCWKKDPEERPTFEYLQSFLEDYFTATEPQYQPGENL
MERTK, sequence (Q12866 whole entry, looked up): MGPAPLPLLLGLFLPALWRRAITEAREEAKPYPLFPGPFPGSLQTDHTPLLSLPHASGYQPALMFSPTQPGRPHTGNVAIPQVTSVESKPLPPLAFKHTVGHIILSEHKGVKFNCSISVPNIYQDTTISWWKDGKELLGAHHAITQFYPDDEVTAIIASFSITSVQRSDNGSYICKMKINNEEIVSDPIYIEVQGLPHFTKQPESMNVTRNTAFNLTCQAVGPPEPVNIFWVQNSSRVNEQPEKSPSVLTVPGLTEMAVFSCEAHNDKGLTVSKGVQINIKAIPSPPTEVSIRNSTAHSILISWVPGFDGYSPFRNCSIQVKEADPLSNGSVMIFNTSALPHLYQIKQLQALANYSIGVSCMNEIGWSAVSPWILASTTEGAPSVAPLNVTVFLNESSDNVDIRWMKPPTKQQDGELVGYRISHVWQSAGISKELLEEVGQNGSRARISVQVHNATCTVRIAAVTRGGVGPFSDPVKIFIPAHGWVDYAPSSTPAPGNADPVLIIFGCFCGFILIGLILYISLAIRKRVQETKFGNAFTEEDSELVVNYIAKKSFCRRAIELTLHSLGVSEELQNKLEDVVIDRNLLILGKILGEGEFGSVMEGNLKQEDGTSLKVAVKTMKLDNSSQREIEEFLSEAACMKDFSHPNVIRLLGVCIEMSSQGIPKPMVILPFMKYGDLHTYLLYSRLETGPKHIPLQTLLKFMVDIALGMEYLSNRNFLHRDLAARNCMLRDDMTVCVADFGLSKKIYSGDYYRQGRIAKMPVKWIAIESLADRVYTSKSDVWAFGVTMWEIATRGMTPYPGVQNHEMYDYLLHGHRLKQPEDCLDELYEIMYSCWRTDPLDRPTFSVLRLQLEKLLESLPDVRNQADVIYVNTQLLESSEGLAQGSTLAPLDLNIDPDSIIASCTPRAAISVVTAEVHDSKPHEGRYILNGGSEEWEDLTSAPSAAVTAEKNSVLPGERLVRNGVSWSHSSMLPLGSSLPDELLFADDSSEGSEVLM

SH2 binding enrichment (c-Src SH2) | SH2 binding enrichment (SHP2-C SH2) | SH2 binding enrichment (Grb2 SH2) | Sequence | phosphorylation enrichment (Jak2) | phosphorylation enrichment (Fer (mouse)) | phosphorylation enrichment (AncSZ) | phosphorylation enrichment (Fes) | phosphorylation enrichment (c-Abl (mouse)) | phosphorylation enrichment (FGFR1) | phosphorylation enrichment (c-Src) | phosphorylation enrichment (EPHB2) | phosphorylation enrichment (Hck) | phosphorylation enrichment (FGFR3) | phosphorylation enrichment (EPHB1) | phosphorylation enrichment (MERTK) | phosphorylation enrichment (Fyn)
0.503 | 0.681 | 0.711 | KRIKSYNQEND [RPGRIP1L_Y448_L447S] | 0.466 | 0.416 | 0.436 | 0.53 | 0.454 | 0.396 | 0.409 | 0.341 | 0.33 | 0.395 | 0.442 | 0.43 | 0.358
0.685 | 1 | 0.893 | GKSFIYAAFHA [KCNT1_Y563_T562I] | 1.32 | 0.672 | 1.18 | 1.25 | 2.75 | 0.452 | 3.84 | 0.522 | 2.83 | 0.805 | 0.787 | 1.72 | 4.67
0.718 | 0.485 | 0.906 | GEDPIYVTLEG [RTKtide_2018] | 1.2 | 3.86 | 1.81 | 1.47 | 1.7 | 4.71 | 3.9 | 6.76 | 3.44 | 3.4 | 5.64 | 2.29 | 5.05
0.472 | 0.488 | 0.678 | YRQLQYCPSVE [CTNND2_Y508] | 0.857 | 0.637 | 1.11 | 1.31 | 0.861 | 0.545 | 0.476 | 0.591 | 0.606 | 0.928 | 0.661 | 0.483 | 0.538
0.544 | 0.67 | 0.88 | DPADRYLIEQC [CDKL5_Y286_T288I] | 1.06 | 0.511 | 1.19 | 1.32 | 0.903 | 0.587 | 0.518 | 0.682 | 0.556 | 0.777 | 0.626 | 0.467 | 0.51
0.503 | 0.652 | 0.661 | PVDTFYDSTRG [DYNC2H1_Y2231_M2227V_YF] | 0.939 | 0.917 | 0.973 | 0.95 | 1.04 | 0.423 | 0.671 | 0.551 | 0.888 | 0.722 | 0.638 | 0.404 | 0.671
0.457 | 0.668 | 1.11 | VHNLDYFKETT [FGFR3_Y647_K650E_YF] | 0.723 | 0.438 | 0.853 | 0.854 | 0.598 | 0.597 | 0.445 | 0.5 | 0.446 | 0.614 | 0.469 | 0.425 | 0.437
0.648 | 0.646 | 0.966 | EQKKFYNAVKK [SCN5A_Y1495_M1498V_YF] | 1.06 | 0.402 | 0.499 | 0.57 | 0.531 | 0.35 | 0.461 | 0.407 | 0.429 | 0.35 | 0.417 | 0.482 | 0.392
0.479 | 0.545 | 0.648 | YTGDIYSNSNL [LZTR1_Y141] | 0.524 | 3.56 | 0.954 | 0.707 | 0.911 | 0.626 | 4.63 | 1.53 | 7.87 | 0.616 | 1.19 | 2.36 | 7.46
0.583 | 0.568 | 0.722 | RRIHCYRGHLW [VHL_Y112_S111C] | 0.702 | 0.66 | 0.626 | 1.17 | 0.527 | 0.475 | 0.62 | 0.524 | 0.483 | 0.56 | 0.49 | 0.556 | 0.465
0.428 | 0.612 | 0.769 | KGSEGYLAAIF [NF1_Y2503_T2507I_YF] | 0.815 | 0.432 | 0.683 | 0.83 | 0.61 | 0.433 | 0.421 | 0.411 | 0.398 | 0.537 | 0.54 | 0.422 | 0.421
0.555 | 0.752 | 0.918 | DKITQYVEEVK [STX2_Y49] | 0.876 | 0.479 | 1.11 | 1.23 | 0.698 | 0.552 | 0.425 | 0.581 | 0.421 | 0.78 | 0.507 | 0.505 | 0.509
0.675 | 0.976 | 0.883 | TNFPLYLRSLE [MTM1_Y71_R69P_YF] | 1.13 | 0.401 | 0.716 | 0.761 | 0.493 | 0.449 | 0.492 | 0.51 | 0.505 | 0.544 | 0.685 | 0.378 | 0.413
0.466 | 0.695 | 0.827 | PSALGYSPSLH [LLGL2_Y40_R45H] | 0.71 | 0.444 | 0.639 | 0.823 | 0.864 | 0.48 | 0.631 | 0.436 | 0.432 | 0.553 | 0.573 | 0.621 | 0.458
0.41 | 0.527 | 0.855 | GKSFTYAAFHA [KCNT1_Y563] | 0.826 | 0.454 | 0.849 | 0.812 | 0.654 | 0.51 | 5.91 | 0.613 | 4.03 | 0.583 | 0.603 | 0.819 | 5.65
0.663 | 0.647 | 0.746 | MAFDRYVAVCA [OR52J3_Y125] | 0.995 | 0.468 | 0.845 | 1.08 | 0.779 | 0.519 | 0.458 | 0.7 | 0.537 | 0.582 | 0.649 | 0.522 | 0.438
1.42 | 0.791 | 0.847 | YCRITYDIFPF [INTS13_Y67_M66T] | 1.45 | 0.785 | 1.8 | 1.59 | 1.18 | 1.28 | 2.57 | 3.79 | 2.72 | 1.38 | 3.8 | 2.83 | 1.57
0.479 | 0.602 | 0.789 | ARGTRYRYVSQ [UCN3_Y95] | 0.437 | 0.493 | 0.534 | 0.637 | 0.608 | 0.42 | 0.572 | 0.461 | 0.469 | 0.483 | 0.39 | 0.529 | 0.492
0.573 | 0.623 | 0.895 | AKAEIYEMRPL [COX10_Y97] | 0.77 | 6.76 | 1.08 | 0.912 | 0.801 | 0.552 | 9.82 | 6.54 | 12.1 | 0.672 | 11 | 8.29 | 11.4
0.393 | 0.66 | 0.781 | AHADEYGAEAL [HBA1_Y25_G23D] | 0.96 | 0.412 | 0.97 | 1.1 | 0.791 | 0.398 | 0.46 | 0.403 | 0.511 | 0.564 | 0.538 | 0.536 | 0.458
1.56 | 1.43 | 1.66 | GHLFAYDWIRI [BEST1_Y227_S231R_YF] | 0.867 | 12.5 | 1 | 1.51 | 0.674 | 1.68 | 0.941 | 0.641 | 1.6 | 1.22 | 0.787 | 4.78 | 0.673
0.485 | 0.654 | 0.709 | FDGGCYEQLFV [MC4R_Y41_S36Y_YF] | 1.43 | 10.7 | 2.53 | 1.49 | 0.748 | 1.05 | 2.46 | 1.07 | 2.67 | 1.33 | 1.09 | 0.875 | 1.81
0.561 | 0.707 | 0.844 | EQLRAYLEGTC [HLA-C_Y183] | 0.866 | 0.558 | 1.02 | 1.08 | 0.53 | 0.843 | 0.423 | 0.591 | 0.55 | 0.692 | 0.467 | 0.403 | 0.453
0.751 | 1.46 | 0.893 | ARSHIYTFSSC [MEFV_Y741_A744S] | 0.714 | 0.497 | 0.867 | 0.917 | 0.578 | 0.547 | 1.15 | 0.665 | 0.61 | 0.681 | 0.519 | 0.62 | 1.3
0.614 | 0.748 | 0.921 | EDSEYYKAFEE [CASQ2_Y179] | 1.11 | 0.487 | 1.37 | 1.34 | 0.793 | 0.51 | 0.547 | 0.489 | 0.508 | 0.742 | 0.526 | 0.372 | 0.425
0.455 | 0.55 | 0.874 | GSESDYIVMPN [SCARB1_Y133] | 1.03 | 0.455 | 2.88 | 1.04 | 0.752 | 5.92 | 0.63 | 8.31 | 0.527 | 3.84 | 8.5 | 0.538 | 0.575
1.35 | 1.19 | 1.06 | SGPRHYTIAAL [TTR_Y125_R124H] | 0.525 | 0.438 | 0.59 | 0.66 | 0.524 | 0.404 | 0.455 | 0.51 | 0.468 | 0.509 | 0.516 | 0.464 | 0.455
0.41 | 0.629 | 0.795 | EHFSFYGMKAV [SLC15A2_Y61_R57H_YF] | 0.901 | 0.48 | 0.868 | 1.04 | 0.624 | 0.441 | 0.579 | 0.601 | 0.846 | 0.615 | 0.498 | 0.417 | 0.473
0.695 | 0.777 | 0.829 | PHIKTYMRPSP [TDP1_Y497] | 0.586 | 0.543 | 0.702 | 0.688 | 0.654 | 0.629 | 0.435 | 0.518 | 0.441 | 0.547 | 0.645 | 0.429 | 0.861
